We go through 24 molecules from US20210139565A1 (GOVERNMENT OF THE UNITED STATES AS REPRESENTED BY THE …, published 2021).

Test [1] addresses T1, Y. pestis LcrV protein (Yersinia pestis KIM5, UniProt P0C7U7 1-326).
T1 construct: also called LcrV antigen
Description: SPR, BIACORE T200, LcrV on CM5 chip, 1:1 model.

The target of test [2] is T1, Y. pestis LcrV protein. As to the kind of experiment: SPR, BIACORE T200, LcrV on CM5 chip, kd/ka. In general terms: Surface plasmon resonance follows binding to a sensor surface in real time, without labels.
Test [3] concerns the target T1, Y. pestis LcrV protein. Description: SPR, BIACORE, LcrV immobilized on CM5 chip.
Test [4] has as its target T1, Y. pestis LcrV protein. Description: Microcal (calorimetry).
For test [5], the target named is T2, Y. pestis F1 protein (Yersinia pestis KIM5, UniProt P26948 22-170).
T2 construct: also called F1 antigen; Fl
As to the kind of experiment: Microcal (calorimetry).

The target in test [6] is T2, Y. pestis F1 protein. As to the kind of experiment: SPR, BIACORE, F1 immobilized on CM5 chip.
The target of a further test is T3, Y. pestis YscF protein (Yersinia pestis KIM5, UniProt O68691 1-87).
T3 construct: also called YscF antigen
T3 sequence: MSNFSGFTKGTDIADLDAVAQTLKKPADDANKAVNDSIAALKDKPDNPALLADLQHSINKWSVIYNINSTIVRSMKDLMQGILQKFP
As to the kind of experiment: ELISA of periplasmic extract on YscF antigen and on blank wells, OD405. On the technique in general: In an ELISA, binding on a coated surface is turned into a signal by an enzyme label.

T2 sequence (P26948 22-170 limits assumed): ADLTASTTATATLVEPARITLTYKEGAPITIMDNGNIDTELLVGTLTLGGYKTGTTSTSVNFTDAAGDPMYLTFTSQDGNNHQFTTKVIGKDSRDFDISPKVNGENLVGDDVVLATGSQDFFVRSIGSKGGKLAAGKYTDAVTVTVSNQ
T1 sequence (P0C7U7 whole entry): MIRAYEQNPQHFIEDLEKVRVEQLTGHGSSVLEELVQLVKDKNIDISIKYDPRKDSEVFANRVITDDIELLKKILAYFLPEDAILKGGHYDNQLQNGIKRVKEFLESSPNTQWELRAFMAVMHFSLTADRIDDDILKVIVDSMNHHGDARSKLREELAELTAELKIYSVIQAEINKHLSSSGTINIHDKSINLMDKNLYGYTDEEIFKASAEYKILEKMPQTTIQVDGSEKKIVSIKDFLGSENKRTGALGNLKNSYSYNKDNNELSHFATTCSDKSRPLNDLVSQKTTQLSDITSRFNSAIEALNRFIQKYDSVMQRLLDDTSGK

B1: 2LCRV11 (VHH)
VHH: QVQLQESGGGLVQPGGSTRLSCAASGFTLDIYAIGWFRQAPGKEHEGVSWIVGNDGRTYYIDSVKGRFTISRDNAKNTVYLEMNSLKPEDTAVYYCAAKFWPRYYSGRPPVGRDGYDYWGQGTQVTVSS
As to B1, in the test with Y. pestis LcrV protein [1], the dissociation rate constant (koff) came out at 0.0072 s⁻¹ and the kon worked out at 880000 M⁻¹ s⁻¹. This molecule also had a Kd in the test with Y. pestis LcrV protein [2] of 8.2 nM. This molecule also came in with a Kd with Y. pestis LcrV protein [3] of 8.2 nM.

B2: 1LCRV32 (VHH)
VHH: QVQLQESGGGMVEPGGSLRLSCAASGFRFSSYAMSWVRQAPGKGLERVSAINSDGDKTSYADSVKGRFTISRDNARNTLYLQMSNLKPEDTAVYYCADRDLYCSGSMCKDVLGGARYDFRGQGTQVTVSS
B2 showed an off-rate constant (koff) with Y. pestis LcrV protein [1] of 0.0073 s⁻¹. For the same molecule, the on-rate constant (kon) in the test with Y. pestis LcrV protein [1] worked out at 340000 M⁻¹ s⁻¹. Besides, the figures for the equilibrium dissociation constant (Kd) with Y. pestis LcrV protein [2], with Y. pestis LcrV protein [4] and with Y. pestis LcrV protein [3] were 22 nM, 26 nM and 22 nM, respectively.

B3: 1LCRV31 (VHH)
VHH: QVQLQESGGGLVQPGGSLGLSCAASGSLLNIYAMGWYRQAPGRQRELVATVTSSGTAEYADSVKGRFTISRDNAKNTVYLQMNSLRPEDTGVYYCNAHLRYGDYVRGPPEYNYWGQGTQVTVSS
B3: in the test with Y. pestis LcrV protein [1], the koff worked out at 3.1e-07 s⁻¹. The kon with Y. pestis LcrV protein [1] was found to be 170000 M⁻¹ s⁻¹. The results for the Kd with Y. pestis LcrV protein [2], with Y. pestis LcrV protein [4] and in the test with Y. pestis LcrV protein [3] were 0.0019 nM, 0.76 nM and 0.0019 nM, respectively.

B4: 1LCRV28 (VHH)
VHH: QVQLQESGGGLVQPGGSLRLSCAASGGTLGYYAIGWFRQAPGKEREAVSCITSSDTSAYYADSAKGRFTISRDNAKNTMYLQMNNLKPEDTAVYYCAAGYYFRDYSDSYYYTGTGMKVWGKGTQVTVSS
With B4, the koff with Y. pestis LcrV protein [1] came to 8.1e-05 s⁻¹. The molecule further registered an on-rate constant (kon) with Y. pestis LcrV protein [1] of 430000 M⁻¹ s⁻¹. Besides, the Kd with Y. pestis LcrV protein [2] came to 0.19 nM; with Y. pestis LcrV protein [4], 0.2 nM; in the test with Y. pestis LcrV protein [3] it was 0.19 nM.

B5: 3F1 (VHH)
VHH: QVQLQESGGGLVQPGGSLRLSCAASGFTFSTSAMSWIRQPPGKAREVVATITSAGGSISYVNSVKGRFTISRDNAKNTLYLQMNMLKPEDTAVYYCARLVNLAQTGQGTQVTVSS
Turning to B5, the Kd is 110 nM with Y. pestis F1 protein [5] and 97 nM with Y. pestis F1 protein [6].

B6: 4F59 (VHH)
VHH: QVQLQESGGGLVRPGGSLRLSCEASGTTFRSLVMKWYRQAPGKEREWVAFISSPGDRTRYTEAVKGRFTISRDNAKNALYLQMNGLKPEDTAVYYCNANGIYWGKGTQVTVSS
As for B6, the dissociation constant (Kd) came to 83 nM in the test with Y. pestis F1 protein [5] and 27 nM in the test with Y. pestis F1 protein [6].

B7: 3F59 (VHH)
VHH: QVQLQESGGGLVQPGGSLRLSCAASGFTFSSYAMSWVRLAPGKGLEWVSTINIAGGITSYADSVKGRFTISRDNAKNTLYLQMNSLKPEDTAVYYCAKTAANWSAQRGQGTQVTVSS
B7 returned a Kd in the test with Y. pestis F1 protein [6] of 5.9 nM.

B8: 3yscf15 (VHH)
VHH: QVQLQESGGGLVQAGGSLRLSCAVSGRTFSRYAMGWFRQAPGKEREFVAAISWSGSSTYYADSVKGRFTISRDHAKNVMYLQMNGLKPEDTGVYVCARPAYGLRPPYNYRGQGTQVTVSS
For B8, the binding result in the test with Y. pestis YscF protein is listed as “binds”.

B9: 3yscf75 (VHH)
VHH: QVQLQESGGGLVQAGDSRILSCTASGRTFGRPFRYTMGWFRRAPGKEREFVGGITRSGNNIYYSDSVKGRFTISRDNAKNTVYLQMNSLKPEDTAVYYCNADWGWRNYWGQGTQVTVSS
Take B9: the binding result with Y. pestis YscF protein was “binds”.

B10: 3yscf140 (VHH)
VHH: QVQLQESGGGLVQAGGSLRLACAASGETVDDLAIGWFRQAPGKEREEISCISGSDGSTYYADSLSGRFTISRDNVKNTVYLQMNSLKLEDTAVYYCYAEIYDRRWYRNDYWGQGTQVTVSS
Turning to B10, the binding result with Y. pestis YscF protein is recorded as “binds”.

B11: 3yscf124 (VHH)
VHH: QVQLQESGGGLVQAGGSLRLSCVASGRAFSNYAMAWFRQAPGKEREFVAANWRSGGLTDYADSVKGRFTISRDDAKNTVYLQMNSLKPEDTAVYYCAAGGGSRWYGRTTASWYDYWGQGTQVTVSS
With B11, the binding result with Y. pestis YscF protein is “binds”.

B12: 1LCRV47 (VHH)
VHH: QVQLQESGGGLVQPGGSLILSCTISGASLRDRRVTWSRQGPGKSLEIIAVMAPDYGVHYFGSLEGRVAVRGDVVKNTVYLQVNALKPEDTAIYWCSMGNIRGLGTQVTVSS
The molecule B12 registered a dissociation constant Kd with Y. pestis LcrV protein [3] of more than 1000 nM.

B13: 3yscf24 (VHH)
VHH: QVQLQESGGGLVQAGGSLKLSCTASQRTFSRYSLGWFRQAPGEERVFVAATTWSGISSDYADSVKGRFTISRDNAKNTGYLQMNNLKPEDTGVYYCAAGRSSWFAPWLTPYEYDYWGRGTQVTVSS
As to B13, the binding result with Y. pestis YscF protein was “binds”.

B14: 3yscf142 (VHH)
VHH: QVQLQESGGGLVQAGGSLRLSCAASGRTFSSHAMAWFRQGPGEERQFLAAIRWNGDNIHYSDSAKGRFTISRDLAKNTLYLQMNSLKPEDTAVYYCARGVYDYWGQGTQVTVSS
For the molecule B14, the binding result in the test with Y. pestis YscF protein is “binds”.

B15: 3F5 (VHH)
VHH: QVQLQESGGGLVQSGDSLRLSCAASGFTFSNYAMSWVRQAPGKGLEWVSTINSGGGSTSYAYSVKGRFTISRDNAKNTLYLQMNSLKPEDTAVYYCAKTASHIPLSQGTQVTVSS
As to B15, the Kd in the test with Y. pestis F1 protein [5] was 83 nM; with Y. pestis F1 protein [6], 47 nM.

B16: 3yscf57 (VHH)
VHH: QVQLQESGGGLVQAGGSLRLSCAASGRTWRAYYMGWFRQAPGKEREFVAVMSRSGGTTSYADSVKGRFTISRDNAKNTVYLQMNNLAPEDTATYYCKAGGGMYGPDLYGMTYWGKGTQVTVSS
With B16, in the test with Y. pestis YscF protein, the binding result is on record as “binds”.

B17: 4F1 (VHH)
VHH: QVQLQESGGGLVQPGGSLSLSCSASGIIFSDYALTWYRQAPGKQREWVAQITRSQNINYTGSVKGRFTVSRDNAKNTVHLQMNSLKPEDTAVYYCHAYDGRRPPYWGQGTQVTVSS
Regarding B17, binding in the test with Y. pestis F1 protein [6] was characterised by a dissociation constant (Kd) of 520 nM.

B18: 3F61 (VHH)
VHH: QVQLQESGGGLVQPGGSLRLSCSASGIIFSDYALTWYRQAPGKQREWVAQITRSQNINYTGSVKGRFTVSRDNAKNTVHLQMNSLKPEDAAVYYCHAYDGRRPPYWGQGTQVTVSS
With B18, the values for the equilibrium dissociation constant (Kd) in the test with Y. pestis F1 protein [5] and with Y. pestis F1 protein [6] were 290 nM and 68 nM, respectively.

B19: 4F6 (VHH)
VHH: QVQLQESGGGSVQPGGSLSLSCSASGIIFSDYALTWYRQAPGKQREWVAQITRSQNINYTGSVKGRFTVSRDNAKNTVHLQMNSLKPEDTAVYYCHAYDGRRRTYWGQGTQVTVSS
As to B19, the Kd with Y. pestis F1 protein [5] was determined as 80 nM; in the test with Y. pestis F1 protein [6] it was 34 nM.

B20: 4F34 (VHH)
VHH: QVQLQESGGGSVQPGGSLSLSCSASGIIFSDYALTWYRQAPGKQREWVAQITRSQNINYTGSVKGRFTVSRDNAKNTVHLQMNSLKPEDTAVYYCHAYDGRRPPYWGQGTQVTVSS
On to B20, for which, in the test with Y. pestis F1 protein [6], the Kd stood at 390 nM.

B21: 3F55 (VHH)
VHH: QVQLQESGGGLVQAGGSLRLSCAVSGMMYIREAIRWYRQAPGKQREWVAFVSSTGNPRYTDSVKGRFTISRDNAKNTVYLQMNSLTPEDTAVYYCNTYLGSRDYWGQGTQVTVSS
Regarding B21, the Kd with Y. pestis F1 protein [5] was found to be 190 nM; with Y. pestis F1 protein [6], 2.2 nM.

B22: 3F85 (VHH)
VHH: QVQLQESGGGLVQPGGSLRLSCAVSGMMYIRYTMRWYRQAPGKQREWVAVVSSTGNPHYADSVKGRFTISRDNAKNTVYLQMNSLTPEDTAVYYCNTYLGSRDYWGQGTQVTVSS
For B22, the values for the Kd with Y. pestis F1 protein [5] and with Y. pestis F1 protein [6] were 110 nM and 15 nM, respectively.

B23: 1LCRV13 (VHH)
VHH: QVQLQESGGGLVRPGGSLKLSCAASGFTFNWYTMAWYRQVPGEERKMVATITGASGDTKYADSVKGRFTISRDNAKNTVTLQMNSLKPGDTAVYYCHAYLTYDSGSVKGVNYWGQGTQVTVSS
As for B23, the koff with Y. pestis LcrV protein [1] is 1.6e-07 s⁻¹. This molecule also had a kon with Y. pestis LcrV protein [1] of 250000 M⁻¹ s⁻¹. The values for the Kd with Y. pestis LcrV protein [2], with Y. pestis LcrV protein [4] and in the test with Y. pestis LcrV protein [3] were 0.00063 nM, 3.2 nM and 0.00063 nM, respectively.

B24: 1LCRV81 (VHH)
VHH: QVQLQESGGGSVQPGGSLKLSCAASGFTFNWYTMAWYRQVPGEERKMVATITGASGDTKYADSVKGRSTISRDNAKNTVTLQMNSLKPGDTAVYYCHACLTYDSGSVKGVNYWGQGTQVTVSS
In the test with Y. pestis LcrV protein [1], B24 yielded an off-rate constant (koff) of 0.00063 s⁻¹ and an association rate constant (kon) of 180000 M⁻¹ s⁻¹. Moreover, binding with Y. pestis LcrV protein [2] was characterised by a dissociation constant (Kd) of 3.5 nM. Also, in the test with Y. pestis LcrV protein [3], binding was characterised by a dissociation constant (Kd) of 3.5 nM.

As usually defined, the koff is the rate constant with which the complex falls apart. Read a high koff as fast dissociation. The kon is the rate constant with which the complex forms. A high value points to faster complex formation. What is called Kd is the constant that tells how readily two partners part at equilibrium. A lower Kd goes with higher affinity.
